The values that follow come from paper PMC9317006, “A Fiber-Based SPR Aptasensor for the In Vitro Detection of Inflammation Biomarkers”.

One data set deals with fibrinogen. The data set is described as follows: fiber-based SPR. The note with it: 100 nM protein; 3' thiol; Detection buffer: 25 mM Tris base, 192 mM glycine, 0.05% Tween 20, 0.1% BSA, 2 mM CaCl2, 100 mM NaCl, pH 8.0; binding temperature not stated (RI calibration at …).
A further data set concerns hemoglobin. The data set is described as follows: fiber-based SPR. The note with it: 100 nM protein; 3' thiol; Detection buffer: 25 mM Tris base, 192 mM glycine, 0.05% Tween 20, 0.1% BSA, 2 mM CaCl2, 100 mM NaCl, pH 8.0; binding temperature not stated (RI calibration at …).
In data set [1] the target is cardiac troponin I (cTn-I) (human, UniProt P19429 1-210). The data set is described as follows: fiber-based SPR; LOD 2.5 nM (not a Kd); aptamer loaded at 200 nM; Detection buffer: 25 mM Tris base, 192 mM glycine, 0.05% Tween 20, 0.1% BSA, 2 mM CaCl2, 100 mM NaCl, pH 8.0; binding temperature not stated (RI calibration at). The note with it: protein: recombinant.
In another data set the target is T1, C-reactive protein (CRP) (human, UniProt P02741 19-224).
T1 sequence: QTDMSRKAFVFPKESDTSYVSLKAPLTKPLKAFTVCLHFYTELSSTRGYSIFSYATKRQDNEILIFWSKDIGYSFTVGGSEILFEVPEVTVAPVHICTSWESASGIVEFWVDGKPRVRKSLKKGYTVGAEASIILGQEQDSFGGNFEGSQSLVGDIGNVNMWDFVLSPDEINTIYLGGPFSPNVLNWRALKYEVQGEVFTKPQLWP
In words: fiber-based SPR; LOD 1.7 nM (not a Kd); aptamer loaded at 100 nM; Detection buffer: 25 mM Tris base, 192 mM glycine, 0.05% Tween 20, 0.1% BSA, 2 mM CaCl2, 100 mM NaCl, pH 8.0; binding temperature not stated (RI calibration at). The note with it: protein: recombinant; chain copies: 5.

cardiac troponin I (cTn-I), sequence (P19429 whole entry): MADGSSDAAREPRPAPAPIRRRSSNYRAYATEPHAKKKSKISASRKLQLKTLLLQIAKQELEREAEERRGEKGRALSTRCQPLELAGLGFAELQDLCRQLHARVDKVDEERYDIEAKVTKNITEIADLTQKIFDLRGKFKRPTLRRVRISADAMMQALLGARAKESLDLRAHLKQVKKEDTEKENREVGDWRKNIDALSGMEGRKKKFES

As for “GGCAGGAAGACAAACACGATGGGGGGGTATGATTTGATGTGGTTGTGCATGATCGTGGTCTGTGGTGCTGTTTTT [CRP aptamer]”, the binding signal (% of specific response) in the data set on fibrinogen and in the data set with hemoglobin was below 20 each time.

With “CGAAGGGGATTCGAGGGGTGATTGCGTGCTCCATTTGGTGTTTTT [cTn-I aptamer]”, the binding signal (% of specific response) in the data set with fibrinogen and in the data set on hemoglobin was below 20 throughout. For CGAAGGGGATTCGAGGGGTGATTGCGTGCTCCATTTGGTGTTTTT (ssDNA, 3' thiol) [cTn-I aptamer], in data set [1], the binding result was “binds”.

B1: CRP aptamer (ssDNA)
DNA: GGCAGGAAGACAAACACGATGGGGGGGTATGATTTGATGTGGTTGTGCATGATCGTGGTCTGTGGTGCTGTTTTT
modifications: 3' thiol
Regarding B1, the binding result with C-reactive protein (CRP) was “binds”.
